Source: the Immune Epitope Database (IEDB)
Blank lines part the entries; values can stand above or below the sequence they belong to.

Experiments:
[1] = target: HLA-B*15:03; experiment: IEDB peptide-MHC binding, purified MHC/competitive/radioactivity; filed as Kd, often an IC50 or EC50 that approximates it; ≥ and ≤ were set here for values at or beyond the usual limits of such assays; details: source organism: Vaccinia virus WR
[2] = target: HLA-B*15:17; experiment: IEDB peptide-MHC binding, purified MHC/competitive/fluorescence; filed as Kd, often an IC50 or EC50 that approximates it; ≥ and ≤ were set here for values at or beyond the usual limits of such assays; details: source organism: Vaccinia virus WR
[3] = target: HLA-A*26:02; experiment: as above; details: source organism: Vaccinia virus WR
[4] = target: HLA-B*57:01; experiment: IEDB peptide-MHC binding, purified MHC/direct/fluorescence; filed as Kd, often an IC50 or EC50 that approximates it; ≥ and ≤ were set here for values at or beyond the usual limits of such assays; details: source organism: Camelpox virus M-96
[5] = target: HLA-B*48:01; experiment: as above
[6] = target: HLA-A*68:02; experiment: as above; details: source organism: Camelpox virus M-96
[7] = target: HLA-B*08:02; experiment: as above
[8] = target: HLA-B*46:01; experiment: as above
[9] = target: HLA-B*15:02; experiment: as above
[10] = target: HLA-B*15:01; experiment: as above
[11] = target: HLA-A*02:01; experiment: as above
[12] = target: HLA-B*07:02; experiment: as above
[13] = target: HLA-A*11:01; experiment: as above
[14] = target: HLA-A*69:01; experiment: as above
[15] = target: HLA-B*27:05; experiment: as above
[16] = target: HLA-B*58:01; experiment: as above
[17] = target: HLA-A*01:01; experiment: as above
[18] = target: HLA-A*26:03; experiment: as above; details: source organism: Variola virus
[19] = target: HLA-A*31:01; experiment: as above
[20] = target: HLA-B*15:02; experiment: IEDB peptide-MHC binding, purified MHC/competitive/fluorescence; filed as Kd, often an IC50 or EC50 that approximates it; ≥ and ≤ were set here for values at or beyond the usual limits of such assays
[21] = target: HLA-B*27:05; experiment: IEDB peptide-MHC binding, purified MHC/competitive/fluorescence; ≥ and ≤ were set here for values at or beyond the usual limits of such assays; details: source organism: hepatitis C virus genotype 1a
[22] = target: HLA-B*27:04; experiment: IEDB peptide-MHC binding, cellular MHC/competitive/fluorescence; ≥ and ≤ were set here for values at or beyond the usual limits of such assays; details: source organism: Human herpesvirus 4 strain B95-8
[23] = target: HLA-A*24:02; experiment: as above; details: source organism: Human herpesvirus 5 strain AD169
[24] = target: HLA-A*26:01; experiment: IEDB peptide-MHC binding, purified MHC/competitive/fluorescence; filed as Kd, often an IC50 or EC50 that approximates it; ≥ and ≤ were set here for values at or beyond the usual limits of such assays; details: source organism: Yersinia pestis KIM10+
[25] = target: HLA-A*11:01; experiment: as above; details: source organism: Yersinia pestis KIM10+
[26] = target: HLA-B*35:01; experiment: IEDB peptide-MHC binding, purified MHC/direct/fluorescence; filed as Kd, often an IC50 or EC50 that approximates it; ≥ and ≤ were set here for values at or beyond the usual limits of such assays
[27] = target: HLA-B*39:01; experiment: as above; details: source organism: Yersinia pestis KIM10+
[28] = target: HLA-B*15:09; experiment: as above; details: source organism: Yersinia pestis KIM10+
[29] = target: HLA-B*35:01; experiment: IEDB peptide-MHC binding, cellular MHC/competitive/fluorescence; ≥ and ≤ were set here for values at or beyond the usual limits of such assays; details: source organism: Mycobacterium tuberculosis H37Rv
[30] = target: HLA-A*03:01; experiment: IEDB peptide-MHC binding, purified MHC/direct/fluorescence; filed as Kd, often an IC50 or EC50 that approximates it; ≥ and ≤ were set here for values at or beyond the usual limits of such assays; details: source organism: Pasteurella multocida
[31] = target: HLA-A*26:01; experiment: as above; details: source organism: Pasteurella multocida
[32] = target: HLA-B*08:01; experiment: as above; details: source organism: Pasteurella multocida
[33] = target: HLA-B*40:01; experiment: as above; details: source organism: Pasteurella multocida
[34] = target: HLA-B*46:01; experiment: IEDB peptide-MHC binding, cellular MHC/competitive/fluorescence; ≥ and ≤ were set here for values at or beyond the usual limits of such assays; details: source organism: Human herpesvirus 4 strain B95-8
[35] = target: HLA-B*15:42; experiment: IEDB peptide-MHC binding, purified MHC/competitive/fluorescence; filed as Kd, often an IC50 or EC50 that approximates it; ≥ and ≤ were set here for values at or beyond the usual limits of such assays; details: source organism: Burkholderia pseudomallei 406e
[36] = target: HLA-B*45:06; experiment: as above; details: source organism: Burkholderia pseudomallei 406e
[37] = target: HLA-B*40:13; experiment: as above; details: source organism: Burkholderia pseudomallei 406e
[38] = target: HLA-A*29:02; experiment: as above; details: source organism: Burkholderia pseudomallei 406e
[39] = target: HLA-B*27:20; experiment: as above; details: source organism: Burkholderia pseudomallei 406e
[40] = target: HLA-A*68:23; experiment: as above; details: source organism: Burkholderia pseudomallei 406e
[41] = target: HLA-B*83:01; experiment: as above; details: source organism: Burkholderia pseudomallei 406e
[42] = target: HLA-A*32:15; experiment: as above; details: source organism: Burkholderia pseudomallei 406e
[43] = target: HLA-C*06:02; experiment: as above; details: source organism: Burkholderia pseudomallei 406e
[44] = target: HLA-C*15:02; experiment: IEDB peptide-MHC binding, purified MHC/direct/fluorescence; filed as Kd, often an IC50 or EC50 that approximates it; ≥ and ≤ were set here for values at or beyond the usual limits of such assays; details: source organism: Burkholderia pseudomallei 406e
[45] = target: HLA-C*07:02; experiment: as above; details: source organism: Burkholderia pseudomallei 406e
[46] = target: HLA-C*14:02; experiment: as above; details: source organism: Burkholderia pseudomallei 406e
[47] = target: HLA-A*29:02; experiment: IEDB peptide-MHC binding, purified MHC/competitive/radioactivity; ≥ and ≤ were set here for values at or beyond the usual limits of such assays; details: source organism: Human papillomavirus 16
[48] = target: HLA-B*73:01; experiment: IEDB peptide-MHC binding, purified MHC/competitive/fluorescence; filed as Kd, often an IC50 or EC50 that approximates it; ≥ and ≤ were set here for values at or beyond the usual limits of such assays; details: source organism: Yersinia enterocolitica subsp. enterocolitica 8081
[49] = source organism: Camelpox virus M-96
[50] = source organism: Yersinia pestis
[51] = source organism: Yersinia pestis KIM10+
[52] = source organism: Pasteurella multocida

Sequence: YQYIFLSFF
Kd [1]: 0.000944 µM
Kd [2]: ≥ 20 µM
Kd [3]: ≥ 20 µM
Kd [4]: ≥ 20 µM
Kd [5, 49]: ≥ 20 µM
Kd [6]: ≥ 20 µM
Kd ([7]; source organism: Variola virus): ≥ 20 µM
Kd [8, 49]: ≥ 20 µM
Kd ([9]; source organism: Variola virus): 1.94 µM
Kd [10, 49]: 3.06 µM
Kd [11, 49]: ≥ 20 µM
Kd [12, 49]: ≥ 20 µM
Kd [13, 49]: ≥ 20 µM
Kd [14, 49]: ≥ 20 µM
Kd [15, 49]: ≥ 20 µM
Kd [16, 49]: ≥ 20 µM
Kd [17, 49]: ≥ 20 µM
Kd [18]: ≥ 20 µM
Kd [19, 49]: ≥ 20 µM

Sequence: MQLPQGGAF
Kd ([20]; source organism: Burkholderia pseudomallei K96243): 0.0235 µM

Sequence: GKAVICGKY
IC50 [21]: 4.67 µM

Sequence: SRRTSRPNR
IC50 [22]: 10 µM

Sequence: VFPTKDVAL
IC50 [23]: ≥ 333 µM

Sequence: STFAASGPF
Kd [24]: 0.0192 µM
Kd [25]: ≥ 20 µM
Kd [5, 50]: ≥ 20 µM
Kd [7, 51]: ≥ 20 µM
Kd [8, 50]: 6.19 µM
Kd [9, 51]: 0.009 µM
Kd [10, 50]: 0.007 µM
Kd [11, 50]: ≥ 20 µM
Kd [12, 50]: ≥ 20 µM
Kd [26, 51]: 0.045 µM
Kd [15, 50]: ≥ 20 µM
Kd [27]: ≥ 20 µM
Kd [16, 50]: ≥ 20 µM
Kd [17, 50]: ≥ 20 µM
Kd [28]: ≥ 20 µM
Kd [19, 50]: ≥ 20 µM

Sequence: MPVGGQSSFY
IC50 [29]: 0.3 µM

Kd ([20]; source organism: Pasteurella multocida subsp. multocida str. Pm70): 0.0744 µM
Kd [30]: ≥ 20 µM
Kd [10, 52]: 0.299 µM
Kd [31]: ≥ 20 µM
Kd [32]: ≥ 20 µM
Kd [11, 52]: ≥ 20 µM
Kd [12, 52]: ≥ 20 µM
Kd [26, 52]: 0.121 µM
Kd [13, 52]: ≥ 20 µM
Kd [33]: ≥ 20 µM
Kd [14, 52]: ≥ 20 µM
Kd [15, 52]: ≥ 20 µM
Kd [16, 52]: ≥ 20 µM
Kd [17, 52]: ≥ 20 µM
Kd [19, 52]: ≥ 20 µM
Sequence: SQLEMCEKY

Sequence: HAMHISTGL
IC50 [34]: 5 µM

Sequence: MSWGWRLPF
Kd [35]: ≥ 5 µM
Kd [36]: ≥ 5 µM
Kd [37]: 0.223 µM
Kd [38]: 0.0161 µM
Kd [39]: 0.0497 µM
Kd [40]: 0.0802 µM
Kd [41]: 5.92 µM
Kd [42]: 0.005 µM
Kd [43]: 0.387 µM
Kd [44]: 1.72 µM
Kd [45]: 0.248 µM
Kd [46]: 0.286 µM

Sequence: IFVYIPLFL
IC50 [47]: 0.444 µM

Sequence: WDYLVRHDA
Kd [48]: 4.5 µM
